{
  "source": "patent US20030114404",
  "data": [
    {"system": "T1, VEGF165 (Homo sapiens), P15692-4", "T1 sequence": "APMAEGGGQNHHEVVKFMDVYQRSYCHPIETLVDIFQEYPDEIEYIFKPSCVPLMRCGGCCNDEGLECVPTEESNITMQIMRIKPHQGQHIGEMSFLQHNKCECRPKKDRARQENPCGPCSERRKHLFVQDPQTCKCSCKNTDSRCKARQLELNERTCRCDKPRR", "experiment": "filter", "details": "2'-F pyrimidines; 37 C", "units": {"Kd": "nM"}, "values": [
      {"sequence": "GGGAGGACGAUGCGGAGAAUCAGUGAAUGCUUAUAAAUCUCGYGUCAGACGACUCGCCCGA [VT30.3]", "Kd": 0.005},
      {"sequence": "GGGAGGACGAUGCGGAYCAACCGAUUGACGUUAUGGGACGCUGGUCAGACGACUCGCCCGA [VP30.5]", "Kd": 0.008},
      {"sequence": "GGGAGGACGAUGCGGCGGYACUUUGGAAGAAUUGAAUUUCCCGCUCAGACGACUCGCCCGA [VP30.26]", "Kd": 0.01},
      {"sequence": "GGGAGGACGAUGCGGUAGGAAGAAUUGGAAGCGCAUUUUCCUCGYCAGACGACUCGCCCGA [VP30.22]", "Kd": 0.02},
      {"sequence": "GGGAGGACGAUGCGGYGAACCGAUGGAAUUUUUGGACGCUCGCCUCAGACGACUCGCCCGA [VP30.2]", "Kd": 0.01}
    ]},
    {"system": "T2, VEGF, P15692-4", "T2 sequence": "T1 sequence", "experiment": "cell_activity", "details": "NX278 (dialkylglycerol, 2'-NH2, 2'-OMe, PS) embedded in DSPC:cholesterol liposome; KSY-1 Kaposi's sarcoma cell proliferation; HUVEC IC50 about 300 nM (p159)", "units": {"IC50": "nM"}, "values": [
      {"sequence": "TTTTACCCUGAUGGUAGACGCCGGGGUGTTTTT [NX278-Liposome]", "IC50": 100}
    ]}
  ]
}
